Assay results taken from patent US20200277366A1 (UCB, published 2020).
“And” between values parts separate entries of the source, which are not always exact repeats. Equal values may be shown once.

Key:
human TNF-alpha [1] = target: T1, human TNF-alpha (human, UniProt P01375 77-233); assay: SPR (Biacore T200), mouse IgG captured by anti-mouse IgG Fc, human TNF injected at 20 nM
T1 construct: also called hTNF; human TNFα
Method: Recombinant rat/mouse chimeric IgG and Fab molecules were screened in the HEK-293-CD40-BLUE reporter assay at a number of concentrations to enable the calculation of EC50 values and determine the maximum percentage inhibition. […] IgG were also analysed in a Biacore experiment to determine binding affinities for human TNF. The assay format of the Biacore experiment was capture of the mouse IgG by immobilised anti-mouse IgG-Fc then titration of human TNF over the captured surface. BIA (Biamolecular Interaction Analysis) was performed using a Biacore T200 (GE Healthcare). Affinipure F(ab′)2 Fragment goat anti-mouse IgG, Fc fragment specific (Jackson ImmunoResearch) was immobilised on a CM5 Sensor Chip via amine coupling chemistry to a level of ˜5000 response units (RUs). HBS-EP buffer (10 mM HEPES pH 7.4, 0.15 M NaCl, 3 mM EDTA, 0.05% Surfactant P20, GE Healthcare) was used as the running buffer with a flow rate of 10 μL/min. A 10 μL injection of mouse IgG at 0.5 μg/mL was used for capture by the immobilised anti-mouse IgG-Fc. Human TNF, was injected over the captured mouse IgG twice at 20 nM at a flow rate of 30 μL/min. The surface was regenerated by 2×10 μL injection of 40 mM HCl, interspersed by a 5 μL injection of 5 mM NaOH at a flowrate of 10 μL/min. Background subtraction binding curves were analysed using the T200evaluation software (version 1.0) following standard procedures.
Neutralisation was determined using the HEK-293-CD40-BLUE reporter assay (Invivogen). […] Biacore analysis was performed to determine binding kinetics.

human TNF-alpha [2] = target: T1, human TNF-alpha; assay: cell-based or functional assay
human TNF-alpha [3] = target: T1, human TNF-alpha; assay: SPR (Biacore T200), Fab captured by anti-human F(ab')2, human TNF at 5 nM
Method: (§1) The assay format of the Biacore experiment was capture of the rat/human chimeric Fabs by immobilised anti-human F(ab′) then titration of human or cynomolgus TNF over the captured surface. BIA (Biamolecular Interaction Analysis) was performed using a Biacore T200 (GE Healthcare). Affinipure F(ab′)2 Fragment goat anti-human IgG-F(ab′)2 fragment specific (Jackson ImmunoResearch) was immobilised on a CM5 Sensor Chip via amine coupling chemistry to a level of ˜5000 response units (RUs). HBS-EP buffer (10 mM HEPES pH 7.4, 0.15 M NaCl, 3 mM EDTA, 0.05% Surfactant P20, GE Healthcare) was used as the running buffer with a flow rate of 10 μL/min. A 10 μL injection of rat/human chimeric at 0.5 μg/mL was used for capture by the immobilised human IgG-F(ab′)2. Human or cynomolgus TNF, was injected over the captured rat/human chimeric Fab at (5 nM or 3.125 nM respectively) at a flow rate of 30 μL/min. The surface was regenerated by 2×10 μL injection of 50 mM HCl, interspersed by a 5 μL injection of 5 mM NaOH at a flowrate of 10 μL/min. Background subtraction binding curves were analysed using the T200evaluation software (version 1.0) following standard procedures.

cynomolgus TNF-alpha = target: T2, cynomolgus TNF-alpha (cynomolgus, UniProt P79337 77-233); assay: SPR (Biacore T200), Fab captured by anti-human F(ab')2, cynomolgus TNF at 3.125 nM
T2 construct: also called cyno TNF; cTNF
Method: as §1

Kd (human TNF-alpha [1]) [nM]	koff (human TNF-alpha [1]) [s⁻¹]	kon (human TNF-alpha [1]) [M⁻¹ s⁻¹]	EC50 (ng/ml), HEK-293-CD40-BLUE reporter assay (human TNF-alpha [2]) [ng/mL]	Kd (human TNF-alpha [3])	koff (human TNF-alpha [3]) [s⁻¹]	kon (human TNF-alpha [3]) [M⁻¹ s⁻¹]	Kd (cynomolgus TNF-alpha)	koff (cynomolgus TNF-alpha) [s⁻¹]	kon (cynomolgus TNF-alpha) [M⁻¹ s⁻¹]	Binder
0.025	0.000119	4.7e+06	0.31	–	–	–	–	–	–	CA2109 IgG (recombinant rat/mouse chimeric IgG, rat variable regions on mouse gamma-1 / mouse kappa) (antibody, V domains shown, Rat variable regions cloned into mouse gamma-1 IgG and mouse kappa expression vectors, expressed in HEK-293; also called fwk18 IgG) VH: EVQLHQSGAALVKPGASVKLSCKTSGYTFTDNYIHWVKQSPGKSLEWIGYINPSSAYAHYNEKFKTKATLTVDKSTNTAYMELSRLTSEDSATYFCTRRYYSAMPFAYWGQGTLVTVSS VL: DIVMTQSPASLSASLGETVTIECRASEDIYNGLAWYQQKPGKSPHLLIYNSNTLHTGVPSRFSGTGSGTQYSLKINSLQSEDVATYFCQQNYDFPLTFGSGTKLELK
–	–	–	–	0.0349 nM and 0.035 nM	0.000143	4.09e+06	0.0274 nM and 0.027 nM	0.000102	3.71e+06	02109 rat/human chimeric Fab (Fab, V domains shown, Rat variable regions with human Fab constant regions; not the humanised graft; also called CA2109) VH: EVQLHQSGAALVKPGASVKLSCKTSGYTFTDNYIHWVKQSPGKSLEWIGYINPSSAYAHYNEKFKTKATLTVDKSTNTAYMELSRLTSEDSATYFCTRRYYSAMPFAYWGQGTLVTVSS VL: DIVMTQSPASLSASLGETVTIECRASEDIYNGLAWYQQKPGKSPHLLIYNSNTLHTGVPSRFSGTGSGTQYSLKINSLQSEDVATYFCQQNYDFPLTFGSGTKLELK
